Laboratory results from publication PMC2756588.

T1: Boi1, P38041
T1 sequence (P38041 1-86, looked up): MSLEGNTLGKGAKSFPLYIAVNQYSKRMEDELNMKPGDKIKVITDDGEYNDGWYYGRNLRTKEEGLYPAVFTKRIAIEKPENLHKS

T2: Pex13, P80667
T2 sequence (P80667 295-386, looked up): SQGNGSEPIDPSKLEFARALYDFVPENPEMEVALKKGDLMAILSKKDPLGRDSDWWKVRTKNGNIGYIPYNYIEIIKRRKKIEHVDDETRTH

T3: Bzz1-2, P38822
T3 sequence (P38822 568-633, looked up): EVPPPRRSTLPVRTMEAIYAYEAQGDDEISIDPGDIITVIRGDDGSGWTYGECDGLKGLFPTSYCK

T4: Hof1, Q05080
T4 sequence (Q05080 590-669, looked up): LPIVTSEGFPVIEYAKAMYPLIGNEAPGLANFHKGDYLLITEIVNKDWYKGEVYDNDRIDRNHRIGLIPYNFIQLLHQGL

T5: Pin3, Q06449
T5 sequence (Q06449 53-122, looked up): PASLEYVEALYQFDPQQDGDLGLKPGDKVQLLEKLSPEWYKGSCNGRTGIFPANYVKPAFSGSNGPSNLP

T6: Boi2, P39969
T6 sequence (P39969 32-116, looked up): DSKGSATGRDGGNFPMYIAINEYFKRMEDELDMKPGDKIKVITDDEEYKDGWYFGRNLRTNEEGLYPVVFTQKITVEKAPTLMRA

T7: Myo5, Q04439
T7 sequence (Q04439 1072-1160, looked up): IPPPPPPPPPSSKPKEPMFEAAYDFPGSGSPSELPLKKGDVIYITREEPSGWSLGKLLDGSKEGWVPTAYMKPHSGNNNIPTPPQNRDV

T8: Sla1-3, P32790
T8 sequence (P32790 344-424, looked up): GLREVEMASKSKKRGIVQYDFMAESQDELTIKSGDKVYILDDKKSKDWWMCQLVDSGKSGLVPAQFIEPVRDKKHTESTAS

T9: Lsb3, P43603
T9 sequence (P43603 385-451, looked up): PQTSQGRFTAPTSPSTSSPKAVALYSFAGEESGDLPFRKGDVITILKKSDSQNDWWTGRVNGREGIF

T10: Fus1, P11710
T10 sequence (P11710 432-512, looked up): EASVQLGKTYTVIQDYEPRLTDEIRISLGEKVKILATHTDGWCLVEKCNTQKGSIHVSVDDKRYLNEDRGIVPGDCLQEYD

T11: Abp1, P15891
T11 sequence (P15891 535-592, looked up): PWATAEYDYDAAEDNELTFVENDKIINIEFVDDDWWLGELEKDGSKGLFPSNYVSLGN

T12: Lsb4, P32793
T12 sequence (P32793 402-468, looked up): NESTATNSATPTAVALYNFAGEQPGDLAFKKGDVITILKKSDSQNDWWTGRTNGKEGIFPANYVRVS

T13: Bud14, P27637
T13 sequence (P27637 247-328, looked up): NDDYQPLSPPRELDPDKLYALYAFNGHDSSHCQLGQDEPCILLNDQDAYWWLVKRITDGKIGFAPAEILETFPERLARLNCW

T14: Sla1-2, P32790
T14 sequence (P32790 60-140, looked up): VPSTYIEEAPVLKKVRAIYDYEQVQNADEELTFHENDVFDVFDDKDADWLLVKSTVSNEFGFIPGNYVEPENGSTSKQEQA

T15: Cyk3, Q07533
T15 sequence (Q07533 1-83, looked up): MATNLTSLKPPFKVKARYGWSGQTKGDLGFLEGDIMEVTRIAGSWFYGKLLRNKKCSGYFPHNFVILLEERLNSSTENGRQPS

T16: Nbp2, Q12163
T16 sequence (Q12163 103-180, looked up): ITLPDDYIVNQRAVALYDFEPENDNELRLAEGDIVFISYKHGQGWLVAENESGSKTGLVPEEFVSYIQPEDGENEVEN

T17: Hse1, P38753
T17 sequence (P38753 208-285, looked up): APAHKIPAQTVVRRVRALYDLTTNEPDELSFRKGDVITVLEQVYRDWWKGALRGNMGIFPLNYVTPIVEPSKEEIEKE

T18: Bbc1, P47068
T18 sequence (P47068 1-78, looked up): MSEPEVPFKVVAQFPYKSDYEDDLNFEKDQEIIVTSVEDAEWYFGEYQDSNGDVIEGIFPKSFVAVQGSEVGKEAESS

T19: Lsb1, P53281
T19 sequence (P53281 45-122, looked up): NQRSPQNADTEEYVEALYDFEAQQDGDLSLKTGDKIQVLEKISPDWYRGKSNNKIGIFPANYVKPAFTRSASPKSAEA

T20: Cdc25, P04821
T20 sequence (P04821 50-136, looked up): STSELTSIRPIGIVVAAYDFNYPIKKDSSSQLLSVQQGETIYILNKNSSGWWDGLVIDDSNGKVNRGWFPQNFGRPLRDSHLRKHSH

T21: Bzz1-1, P38822
T21 sequence (P38822 478-572, looked up): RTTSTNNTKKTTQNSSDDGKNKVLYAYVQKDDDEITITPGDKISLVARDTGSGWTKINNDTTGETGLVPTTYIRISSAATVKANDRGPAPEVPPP


Columns and labels:
Assay in all cases: SPOT array
[1] = target: Bem1-1, P29366; details: median of control spots 4282
Bem1-1, P29366, sequence (P29366 55-141): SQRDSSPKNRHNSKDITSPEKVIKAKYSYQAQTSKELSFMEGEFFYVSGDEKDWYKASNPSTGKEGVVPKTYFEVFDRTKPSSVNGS

[2] = target: T1, Boi1, P38041; details: median of control spots 1162
[3] = target: T2, Pex13, P80667; details: median of control spots 1341
[4] = target: T3, Bzz1-2, P38822; details: median of control spots 4538
[5] = target: T4, Hof1, Q05080; details: median of control spots 4086
[6] = target: T5, Pin3, Q06449; details: median of control spots 2171
[7] = target: T6, Boi2, P39969; details: median of control spots 1161
[8] = target: T7, Myo5, Q04439; details: median of control spots 471
[9] = target: Sho1, P40073; details: median of control spots 1148
Sho1, P40073, sequence (P40073 287-367): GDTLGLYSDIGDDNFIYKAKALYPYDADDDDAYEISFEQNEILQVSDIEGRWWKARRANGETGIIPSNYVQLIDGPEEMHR

[10] = target: T8, Sla1-3, P32790; details: median of control spots 5475
[11] = target: T9, Lsb3, P43603; details: median of control spots 406
[12] = target: T10, Fus1, P11710; details: median of control spots 1200
[13] = target: T11, Abp1, P15891; details: median of control spots 935
[14] = target: T12, Lsb4, P32793; details: median of control spots 397
[15] = target: T13, Bud14, P27637; details: median of control spots 956
[16] = target: T14, Sla1-2, P32790; details: median of control spots 712
[17] = target: T15, Cyk3, Q07533; details: median of control spots 1451
[18] = target: Myo3, P36006; details: median of control spots 468
[19] = target: Rvs167, P39743; details: median of control spots 2707
Rvs167, P39743, sequence (P39743 419-482): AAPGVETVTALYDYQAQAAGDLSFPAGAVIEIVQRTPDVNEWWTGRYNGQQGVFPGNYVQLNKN

[20] = target: T16, Nbp2, Q12163; details: median of control spots 357
[21] = target: T17, Hse1, P38753; details: median of control spots 1727
[22] = target: Bem1-2, P29366; details: median of control spots 4347
Bem1-2, P29366, sequence (P29366 139-227): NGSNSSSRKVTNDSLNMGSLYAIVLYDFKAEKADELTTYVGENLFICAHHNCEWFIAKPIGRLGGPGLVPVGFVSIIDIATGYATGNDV

[23] = target: T18, Bbc1, P47068; details: median of control spots 796
[24] = target: T19, Lsb1, P53281; details: median of control spots 388
[25] = target: GST; details: median of control spots 978
[26] = target: T20, Cdc25, P04821; details: median of control spots 969
[27] = target: T21, Bzz1-1, P38822; details: median of control spots 4446

| Binder | SPOT intensity [1] | SPOT intensity [2] | SPOT intensity [3] | SPOT intensity [4] | SPOT intensity [5] | SPOT intensity [6] | SPOT intensity [7] | SPOT intensity [8] | SPOT intensity [9] | SPOT intensity [10] | SPOT intensity [11] | SPOT intensity [12] | SPOT intensity [13] | SPOT intensity [14] | SPOT intensity [15] | SPOT intensity [16] | SPOT intensity [17] | SPOT intensity [18] | SPOT intensity [19] | SPOT intensity [20] | also measured |
| --- | --- | --- | --- | --- | --- | --- | --- | --- | --- | --- | --- | --- | --- | --- | --- | --- | --- | --- | --- | --- | --- |
| PHNPSPFFPPPDFND | 0 | 0 | 70 | 0 | 0 | 0 | 0 | 244 | 0 | 0 | 0 | 0 | 0 | 0 | 0 | 0 | 0 | 319 | 0 | 0 | SPOT intensity [21]: 0; SPOT intensity [22]: 0; SPOT intensity [23]: 0; SPOT intensity [24]: 0; SPOT intensity [25]: 0; SPOT intensity [26]: 0; SPOT intensity [27]: 0 |
| PKRRAPPPVPKKPSS | 0 | 2 | 41 | 3420 | 8 | 11 | 1 | 119 | 399 | 3500 | 346 | 6 | 648 | 182 | 1 | 0 | 1 | 342 | 44 | 650 | SPOT intensity [21]: 368; SPOT intensity [22]: 389; SPOT intensity [23]: 354; SPOT intensity [24]: 1740; SPOT intensity [25]: 2; SPOT intensity [26]: 3; SPOT intensity [27]: 650 |
| ERPKRRAPPPVPKKP | 0 | 0 | 62 | 791 | 0 | 11 | 0 | 180 | 311 | 2610 | 188 | 0 | 673 | 89 | 0 | 0 | 0 | 358 | 10 | 58 | SPOT intensity [21]: 57; SPOT intensity [22]: 279; SPOT intensity [23]: 282; SPOT intensity [24]: 326; SPOT intensity [25]: 0; SPOT intensity [26]: 4; SPOT intensity [27]: 160 |
| KRRAPPPVPKKPSSR | 1 | 2 | 47 | 4500 | 6 | 14 | 1 | 144 | 370 | 4640 | 389 | 10 | 626 | 150 | 9 | 0 | 4 | 454 | 165 | 751 | SPOT intensity [21]: 412; SPOT intensity [22]: 961; SPOT intensity [23]: 233; SPOT intensity [24]: 1850; SPOT intensity [25]: 3; SPOT intensity [26]: 9; SPOT intensity [27]: 1320 |
